One block for each binder: values may come before it.
B1: S. pombe α-tubulin1 (in the microtubule lattice) (natural protein, UniProt P04688 1-455, looked up)
chain: MREVISVHVGQAGVQIGNACWELYCLEHGIGPDGFPTENSEVHKNNSYLNDGFGTFFSETGQGKFVPRSIYVDLEPNVIDQVRTGPYKDLFHPEQMVTGKEDASNNYARGHYTVGKEMIDSVLERIRRMADNCSGLQGFLVFHSFGGGTGSGLGALLLERLNMEYGKKSNLQFSVYPAPQVSTSVVEPYNSVLTTHATLDNSDCTFMVDNEACYDICRRNLDIERPTYENLNRLIAQVVSSITASLRFAGSLNVDLNEFQTNLVPYPRIHFPLVTYSPIVSAAKAFHESNSVQEITNQCFEPYNQMVKCDPRTGRYMATCLLYRGDVIPRDVQAAVTSIKSRRTIQFVDWCPTGFKIGICYEPPQHVPGSGIAKVNRAVCMLSNTTSIAEAWSRLDHKFDLMYSKRAFVHWYVGEGMEEGEFSEAREDLAALERDYEEVGQDSMDNEMYEADEEY
notes: S. pombe alpha-tubulin1, native, untagged; the sample was a wild-type mixture of alpha-tubulin1 and alpha-tubulin2, the model and the residue numbers are those of alpha-tubulin1; Subunit of m2, written alone for the contacts seen in the structure; also called Sp_α-tubulin1; Sp_α-tub; source: purified from S. pombe as tag-free endogenous tubulin (dual isoform), polymerized in vitro

Experiments:
[1] = target: the molecule itself; experiment: cryo-EM structure; 20 or 30 uM dual-isoform Sp_tub polymerized with 5 mM GTP and 25 uM Mal3-143 at 32 °C in PEM mixed 1:1 with MES buffer; 13 uM MTs incubated with 60 uM Mal3 before freezing; 13-PF (13_3) MTs, single-particle averaging, 4.6 Å, no kinesin motor domain
[2] = target: T1, dynamic microtubules polymerized from unlabeled single-isoform S. pombe tubulin (S. pombe, UniProt P04688 1-455; P05219 1-448); experiment: TIRF microscopy; dynamic unlabeled MTs grown from antibody-immobilized GMPCPP pig brain MT seeds; GFP-labelled EB protein in solution; PEM100 pH 6.9 plus 1 mM GTP, with additional KCl (55, 75, 85 mM) in some experiments; 4.5 or 14 uM Sp_tub, 25 uM pig brain tubulin; conditions: both partners purified
T1 construct: S. pombe alpha-tubulin1, untagged; S. pombe beta-tubulin, untagged; Polymer of alpha-beta heterodimers, grown with 1 mM GTP from Alexa-488-labeled GMPCPP-stabilized pig brain MT seeds

[3] = target: B1; experiment: cryo-EM structure; 20 or 30 uM dual-isoform Sp_tub polymerized with 5 mM GTP and 25 uM Mal3-143 at 32 °C in PEM mixed 1:1 with MES buffer; 13 uM MTs incubated with 60 uM Mal3 before freezing; 13-PF (13_3) MTs, single-particle averaging, 4.6 Å, no kinesin motor domain; conditions: both partners purified

T1 sequence (P05219 whole entry, canonical isoform, one chain of several): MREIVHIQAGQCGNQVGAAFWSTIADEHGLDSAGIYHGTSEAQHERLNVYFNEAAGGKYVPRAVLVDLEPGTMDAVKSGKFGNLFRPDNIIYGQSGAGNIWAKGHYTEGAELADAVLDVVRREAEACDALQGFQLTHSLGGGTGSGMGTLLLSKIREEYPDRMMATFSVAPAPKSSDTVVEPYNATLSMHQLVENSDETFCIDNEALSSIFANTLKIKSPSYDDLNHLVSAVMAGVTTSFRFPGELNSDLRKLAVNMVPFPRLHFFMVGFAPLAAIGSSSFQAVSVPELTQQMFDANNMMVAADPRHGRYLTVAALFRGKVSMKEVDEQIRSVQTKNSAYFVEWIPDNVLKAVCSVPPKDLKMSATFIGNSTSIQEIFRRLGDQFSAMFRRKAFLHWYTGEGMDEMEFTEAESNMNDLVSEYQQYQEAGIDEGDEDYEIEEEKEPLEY

Binder: B1
binding result [1]: binds

binding result [2]: binds
B2: full-length Mal3-GFP (natural protein, S. pombe, UniProt Q10113 1-308, looked up)
chain: MSESRQELLAWINQVTSLGLTRIEDCGKGYAMIQIFDSIYQDIPLKKVNFECNNEYQYINNWKVLQQVFLKKGIDKVVDPERLSRCKMQDNLEFVQWAKRFWDQYYPGGDYDALARRGNRGPANTRVMNSSAGATGPSRRRQVSSGSSTPSMTKSSANNNNVSSTANTAAVLRAKQAQQQITSLETQLYEVNETMFGLERERDFYFNKLREIEILVQTHLTTSPMSMENMLERIQAILYSTEDGFELPPDQPADLTTALTDHDTNNVAEEAQMTDLKDSETQRVPSAPDFVHARLQSLEVDDDENITF
notes: Mal3, the S. pombe EB protein, full length; His tag removed by TEV protease cleavage; also called dimeric Mal3; not shown: e-GFP, C-terminal, kept

binding result [3]: binds
B3: monomeric Mal3 (1-143, Mal3-143) (domain or fragment, S. pombe, UniProt Q10113 1-143, looked up)
chain: MSESRQELLAWINQVTSLGLTRIEDCGKGYAMIQIFDSIYQDIPLKKVNFECNNEYQYINNWKVLQQVFLKKGIDKVVDPERLSRCKMQDNLEFVQWAKRFWDQYYPGGDYDALARRGNRGPANTRVMNSSAGATGPSRRRQV
notes: also called Mal3 CH domain

Source: article PMC5727398, “Nucleotide– and Mal3-dependent changes in fission yeast microtubules suggest a structural plasticity view of dynamics” (Nature Communications, 2017)
